In patent US11708423B2, “Chimeric engulfment receptor molecules and methods of use” (CERO THERAPEUTICS, INC., priority 2017, dated 2023):

B1: CER07: Tim4 binding domain, TLR4 juxtamembrane spacer, TLR4 transmembrane domain, TLR4 signaling domain; SEQ ID NO:83 (protein)
chain: MSKGLLLLWLVTELWWLYLTPAASEDTIIGFLGQPVTLPCHYLSWSQSRNSMCWGKGSCPNSKCNAELLRTDGTRIISRKSTKYTLLGKVQFGEVSLTISNTNRGDSGVYCCRIEVPGWFNDVKKNVRLELRRATTTKKPTTTTRPTTTPYVTTTTPELLPTTVMTTSVLPTTTPPQTLATTAFSTAVTTCPSTTPGSFSQETTKGSAFTTESETLPASNHSQRSMMTISTDIAVLRPTGSNPGILPSTSQLTTQKTTLTTSESLQKTTKSHQINSRQTPVLSLNITCQMNKTIIGVSVLSVLVVSVVAVLVYKFYFHLMLLAGCIKYGRGENIYDAFVIYSSQDEDWVRNELVKNLEEGVPPFQLCLHYRDFIPGVAIAANIIHEGFHKSRKVIVVVSQHFIQSRWCIFEYEIAQTWQFLSSRAGIIFIVLQKVEKTLLRQQVELYRLLSRNTYLEWEDSVLGRHIFWRRLRKALLDGKSWNPEGTVGTGCNWQEATSI
modifications: CER07 chimeric engulfment receptor
B2: CER19: Tim4 binding and transmembrane domains, TLR5 signaling domain; SEQ ID NO:86 (protein)
chain: MSKGLLLLWLVTELWWLYLTPAASEDTIIGFLGQPVTLPCHYLSWSQSRNSMCWGKGSCPNSKCNAELLRTDGTRIISRKSTKYTLLGKVQFGEVSLTISNTNRGDSGVYCCRIEVPGWFNDVKKNVRLELRRATTTKKPTTTTRPTTTPYVTTTTPELLPTTVMTTSVLPTTTPPQTLATTAFSTAVTTCPSTTPGSFSQETTKGSAFTTESETLPASNHSQRSMMTISTDIAVLRPTGSNPGILPSTSQLTTQKTTLTTSESLQKTTKSHQINSRQTILIIACCVGFVLMVLLFLAFLTKFRGFCFICYKTAQRLVFKDHPQGTEPDMYKYDAYLCFSSKDFTWVQNALLKHLDTQYSDQNRFNLCFEERDFVPGENRIANIQDAIWNSRKIVCLVSRHFLRDGWCLEAFSYAQGRCLSDLNSALIMVVVGSLSQYQLMKHQSIRGFVQKQQYLRWPEDFQDVGWFLHKLSQQILKKEKEKKKDNNIPLQTVATIS
modifications: CER19 chimeric engulfment receptor
B3: CER05: Tim4 binding domain, Tim4 transmembrane domain, TLR4 signaling domain; SEQ ID NO:81 (protein)
chain: MSKGLLLLWLVTELWWLYLTPAASEDTIIGFLGQPVTLPCHYLSWSQSRNSMCWGKGSCPNSKCNAELLRTDGTRIISRKSTKYTLLGKVQFGEVSLTISNTNRGDSGVYCCRIEVPGWFNDVKKNVRLELRRATTTKKPTTTTRPTTTPYVTTTTPELLPTTVMTTSVLPTTTPPQTLATTAFSTAVTTCPSTTPGSFSQETTKGSAFTTESETLPASNHSQRSMMTISTDIAVLRPTGSNPGILPSTSQLTTQKTTLTTSESLQKTTKSHQINSRQTILIIACCVGFVLMVLLFLAFLKFYFHLMLLAGCIKYGRGENIYDAFVIYSSQDEDWVRNELVKNLEEGVPPFQLCLHYRDFIPGVAIAANIIHEGFHKSRKVIVVVSQHFIQSRWCIFEYEIAQTWQFLSSRAGIIFIVLQKVEKTLLRQQVELYRLLSRNTYLEWEDSVLGRHIFWRRLRKALLDGKSWNPEGTVGTGCNWQEATSI
modifications: CER05 chimeric engulfment receptor

Key:
[1] = tested on: dexamethasone treated thymocytes; assay: Phagocytic activity of CER+ Ba/F3 cells against primary apoptotic thymocytes; type: cell-based, C3H mouse; conditions: for engulfment of dexamethasone-treated thymocytes: target:effector 10:1, 3 hours or overnight, fluorescent microscopy, vs EGFRt control
Method: One day prior to phagocytic assay, primary thymocytes were isolated from a C3H mouse (Charles River Laboratories International, Inc.). Thymocytes were cultured in complete RPMI 1640 growth media supplemented with 10% fetal bovine serum and 1% penicillin-streptomycin in a 6-well plate. To induce apoptosis and phosphatidylserine expression on the cell surface, thymocytes were treated with 1 μM dexamethansone for 24 hours. Untreated thymocytes were used as a negative control. Thymocytes were collected from the 6-well plates, washed once with sterile 1X PBS, and then stained with 1 ng/μ1 pH sensitive pHrodo™ Red dye (ThermoFisher Scientific, Catalog #P36600) in PBS at room temperature for 15 minutes. Labeling target cells with pHrodo Red dye permits visualization of cells that are engulfed and transported into lysosomes due to their increased light emission in the acidic lysosomal environment (Miksa et al., 2009, Immunol. Methods 342:71-7). The cells were then supplemented with growth media and washed one more time to remove any excess pHrodo Red. pHrodo Red stained thymocytes were plated on a flat bottom 96 well plate at 250,000 cells/well in RMPI 1640 complete media. […]
[…] The 96 well plate was then viewed using KEYENCE BZ-X710 fluorescence microscope, 20X objective. […]
A phagocytic index was calculated by multiplying [mean of total number of engulfed target cells/total number of counted CER modified cells (e.g., phagocytic frequency)] by [average area of target cell staining per CER+Ba/F3 cell x 100 (e.g., hybrid capture)] as compared to control EGFRt+Ba/F3 cells (see, FIG. 8). […]
Primary C3H mouse thymocytes were isolated, treated with dexamethasone, and stained with pHrodo Red as described in Example 1. […] Co-culture experiments were carried out at a 10:1 target cell to effector cell ratio, and Ba/F3 CER07^+tEGFR^+ cells were quantified for phagocytosis by fluorescence microscopy and FACs as described in Example 1. […]

[2] = tested on: CT26 murine colon carcinoma cells; assay: Phagocytic activity of CER+ Ba/F3 cells against murine cell line CT26; type: cell-based; conditions: target:effector 5:1, 3 hours
Method: One day prior to the phagocytosis assay, CT26 murine colon carcinoma cells were cultured in complete RPMI 1640 growth media supplemented with 10% fetal bovine serum and 1% penicillin-streptomycin in a 6-well plate and treated with 1 mM staurosporine (STS) for 12 hours to induce apoptosis. Untreated CT26 cells were used as a negative control.
On the day of the phagocytosis assay, CT26 cells were collected, washed twice with 1×PBS to remove excess staurosporine and then stained with 1 ng/μ1 pHrodo Red in PBS at room temperature for 15 minutes. […]
Target CT26 cells were co-cultured with stained, CER05^+tEGFR^+ cells at a ratio of 5:1 (target cell:effector cell) for 3 hours at 37° C. […] The 96 well plate was then viewed using KEYENCE BZ-X710 fluorescence microscope, 20X objective. […]
A hybrid capture algorithm that detects fluorescence of pHrodo Red within CELLTRACE Violet staining area was applied to fluorescent images to quantify the area of engulfed target cells/area of CER^+ B cells or control tEGFR+ B cells (see, FIG. 12). […]
A hybrid capture algorithm that detects fluorescence of pHrodo Red within CELLTRACE Violet staining area was applied to fluorescent images to quantify the area of engulfed target cells/area of CER^+ B cells (see, FIG. 17). […]

human primary B cells = assay: Proliferation of CER+ B cells co-cultured with paclitaxel treated Jurkat cells (CELLTRACE Violet dilution); type: cell-based; conditions: 5 days co-culture with paclitaxel (30 μM) treated Jurkat cells, no exogenous cytokines
Method: The proliferation capacity of CER19+ and CER21+ human primary B cells was evaluated by co-culture with paclitaxel (30 μM) treated Jurkat lymphoma cells. CER-transduced B cells were labeled with CELLTRACE Violet and then co-cultured with paclitaxel treated Jurkat cells a target cell to effector cell ratio of 5:1 at 37° C. in the absence of exogenous cytokines for 5 days. Proliferation of CER19+ or CER21+B cells was assessed by flow cytometry by measuring dilution of CELLTRACE Violet (FIG. 23). Both CER19+ and CER21+ B cells increased approximately 10-fold after 5 days of co-culture in the absence of exogenous cytokines.

Molecule | engulfment of dexamethasone-treated thymocytes [1] | phagocytosis of staurosporine treated CT26 cells [2] | increase of CER+ B cells (human primary B cells) | co-localization of pHrodo red labeled thymocytes with LysoTracker green vesicles ([1]; 6 hours, 50 nM LysoTracker green)
B1 | engulfed dexamethasone-treated thymocytes | engulfed staurosporine treated CT26 cells | – | –
B2 | – | – | approximately 10 fold | –
B3 | engulf dexamethasone-treated thymocytes | in vitro phagocytosis | – | pHrodo-labeled target cells have been internalized into lysosomes
